{"source": "patent US20220112276A1", "about": "(Janssen / Centocor, published 2022)", "binders": {"B1": {"name": "01B01R3 His-tagged VHH (VHH)", "VHH": "QVQLVESGGGLVQAGGSLRLSCAASGRTFSSYAMGWFRQAPGKEREFVAVISWSGGSTYYADSVKGRFTISRDNAKNTVYLQMNSLKPEDTAVYYCASGEQPGSNRPYIPEQPIEFMPTDYPSWYDYWGQGTLVTVSS"}, "B2": {"name": "01F03R2 His-tagged VHH (VHH)", "VHH": "QVQLVESGGGLVQAGGSLRLSCAASGRTFSSYAMGWFRQAPGKEREFVAVISWSGGSTYYADSVKGRFTISRDNAKNTVYLQMNSLKPEDTAVYYCASGEQPGSNRPYIPEQPIEFMPTDYPSWYDYWGQGTQVTVSS"}, "B3": {"name": "03A08R3 His-tagged VHH (VHH)", "VHH": "QVQLVESGGGLVQAGGSLRLSCAASGRTSSIYGMGWFRQAPGKEREFVAAISWSAGRTYHADSVKGRFTISRDNAKNMVYLQMDKMKPGDTAVYYCAARRAPELLSDYTQKPEEIGTYHYWGQGTLVTVSS"}, "B4": {"name": "01A01R3 His-tagged VHH (VHH)", "VHH": "EVQLVESGGGLVQAGGSLRLSCAASGSGRTFTSYTMGWFRQAPGKEREFVSALTWADDSTYYKYYADSMKGRLTISRDNAKNTVYLQMNSLKPEDTAVYYCVATGRGLTYDPRDRRKYDYWGQGTQVTVSS"}, "B5": {"name": "01A09R2 His-tagged VHH (VHH)", "VHH": "EVQLVESGGGLVQAGGSLRLSCAASGRTFSSNPMGWFRQAPGKEREFVAAISWSGGGTYYADSVKGRFTISRDNAKNTVTLQMNSLKPEDTAVYYCASRDYSDPISLWVEDREYDYWGQGTQVTVSS"}, "B6": {"name": "01F01R2 His-tagged VHH (VHH)", "VHH": "QVQLVESGGGLVQAGGSLRLSCAASGRTFSSNPMGWFRQAPGKEREFVAAISWSGGGTYYADSVKGRFTISRDNAKNTVTLQMNSLKPEDTAVYYCASRDYSDPISLWVEDREYDYWGQGTQVTVSS"}, "B7": {"name": "03B07R3 His-tagged VHH (VHH)", "VHH": "QVQLVESGGGLVQAGGSLRLSCAASGRTFSSNPMGWFRQAPGKEREFVAAISWSGGGTYYADSVKGRFTISRDNAKNTVTLQMNSLKPEDTAVYYCASRDYSDPISLWVEDREYDYWGQGTLVTVSS"}, "B8": {"name": "03D05R3 His-tagged VHH (VHH)", "VHH": "EVQLVESGGGLVQAGGSLRLSCAASGRTFSSNPMGWFRQAPGKEREFVAAISWSGGGTYYADSVKGRFTISRDNAKNTVTLQMNSLKPEDTAVYYCASRDYSDPISLWVEGREYDYWGQGTLVTVSS"}, "B9": {"name": "02G04R3 His-tagged VHH (VHH)", "VHH": "QVQLVESGGGLVQAGGSLRLSCAANGRAANAYAVGWFRQAPGKEREFVAHIRWNGGRTAYADSVKGRFTISRDDAKNTVYLQMDSLKPEDTAVYYCAEDTNPDAFGDLRLPSEYEYWGQGTQVTVSS"}, "B10": {"name": "01C01R2L His-tagged VHH (VHH)", "VHH": "QVQLVESGGGLVQAGGSLRLSCAASGRTLRSYIVGWFRQAPGKEREFVAAVTWSDGRRVTADPVKGRFTISRDNAKNTVYLQMDSLKPEDAAVYYCAVSRGGAYEYSRAYEYWGQGTLVTVSS"}, "B11": {"name": "02G03R3 His-tagged VHH (VHH)", "VHH": "EVQLVESGGGLVQAGGSLRLSCAASGMPDNIFSIKTMGWYRQAPGKERELVAAITSGGSTNYGDSVKDRFTISRDRIENTVNLEMNNLKPEDTAVYTCHADLTYIRFQDMEYWGKGTQVTVSS"}, "B12": {"name": "02D06R3 His-tagged VHH (VHH)", "VHH": "QVQLVESGGGLVQPGGRLRLSCAASGSIFSIRDMAWYRQAPGKQREWVAIAARGGSTHYADSVKGRFTISRDNAKNTVYLQMNTLEPEDTAAYYCNAEVATMIQPGFRDYWGQGTQVTVSS"}, "B13": {"name": "02G06R3 His-tagged VHH (VHH)", "VHH": "EVQLVESGGGLVQAGGSLRLSCAASGRTFDSYAMGWFRQAPGKEREFVAAISWTGGSTDYADSVKGRFTISRDNAKNTVYLQMDSLKPEDTAVYYCAAEVVGRDVTTMYRVSGLEYEYDYWGQGTQVTVSS"}, "B14": {"name": "02H11R3 His-tagged VHH (VHH)", "VHH": "EVQLVESGGGSVQAGGSLRLSCAASGRTFSNYAMGWFRQAPGKEREFVAGISRSGGSTYSADSVKGRFTISRDNAKNTVYLQMNSLKPEDTAVYYCAADGLDYALGFRGDYWGQGTQVTVSS"}, "B15": {"name": "01C02R3LS His-tagged VHH (VHH)", "VHH": "QVQLVESGGGLVQAGDSLRLSCAASGRTRTTYGMGWFRQAPGKEREFVTTITWSGSTNYKYYADSVKGRFTISRDNAKNTVYLQMNSLKPDDTAVYYCAASTVLTDPRVPTEYDYWGQGTQVTVSS"}, "B16": {"name": "01H11R2LS His-tagged VHH (VHH)", "VHH": "EVQLVESGGGLVQAGDSLRLSCAASGRTLTTYGMGWFRQAPGKEREFVATIKWSGSTNYKYYADSVKGRFTISRDNAKNTVYLQMNSLKPEDTAVYYCAAGTVLGDPRVLNEYDYWGQGTLVTVSS"}, "B17": {"name": "01C08R2L His-tagged VHH (VHH)", "VHH": "EVQLVESGGGLVQAGDSLRLSCAASGRTFTTYGVGWFRQAPGKEREFVTTITWSGSTNYKYYADSVKGRFTISRDNAKNTVYLQMNSLKPDDTAVYYCAASTVLTDPRVPTEYDYWGQGTQVTVSS"}, "B18": {"name": "01H06R3L His-tagged VHH (VHH)", "VHH": "EVQLVESGGGLVQAGDSLRLSCAASGRTRTTYGMGWFRQAPGKEREFVTTITWSGPTNYKYYADSVKGRFTISRDNAKNTAYLQMNSLKPDDTAVYYCAASTVLTDPRVPTEYDYWGQGTQVTVSS"}, "B19": {"name": "01G08R3LS His-tagged VHH (VHH)", "VHH": "QVQLVESGGGLVQAGDSLRLSCAASGRTFTTYGMGWFRQGPGKEREFVATITWSGSTNYKYYTDSVKGRFTISRDNAKNTVYLQMNSLKPEDTAVYYCAASTVLTDPRRLNEYDYWGQGTQVTVSS"}, "B20": {"name": "01B10R3L His-tagged VHH (VHH)", "VHH": "QVQLVESGGGLVQAGDSLRLSCAASGRTFTTYVMGWFRQPPGKEREFVATISWSGSTTYKYYADSVKGRFTISRDNAKNTVYLQMNSLKPEDTAVYYCAASTVVADPRAPNEYDYWGQGTQVTVSS"}, "B21": {"name": "02E01R3LS His-tagged VHH (VHH)", "VHH": "QVQLVESGGGLVQAGDSLRLSCAASGRTFTTYGMGWFRQAPGKEREFVTTITWSGSTNYKYYADSVKGRFTISRDNAKNTVYLQMNSLKPDDTAVYYCAASTVLRDPRVPTEYDYWGQGTQVTVSS"}, "B22": {"name": "03C05R3 His-tagged VHH (VHH)", "VHH": "EVQLVESGGGLVKAEGSLRLSCVASTSIASINVMGWYRQAPGKERELVARISGGGITHYAESVEGRFTISRDNAKNTVHLQMNGLKPEDTAAYYCKADVFASSGHVTTYWGQGTLVTVSS"}, "B23": {"name": "01E11R2 His-tagged VHH (VHH)", "VHH": "QVQLVESGGGLVQTGGSLRLSCAASGLTFSSYTMGWFRQAPGKEREFVAAISWGGASTWYADSVKGRFTISRDNAKTMVYLQMNGLKPEDTAVYYCAKGRNNGYATAVRAYDYWGQGTLVTVSS"}, "B24": {"name": "01B05R2 His-tagged VHH (VHH)", "VHH": "EVQLVESGGGLVQAGGSLRLSCAASGRSLSFDTYAMGWFRQAPGKEREFVASIDWNGGSTYYADSVKGRFTISRDNARNTVNLRMNSLKPDDTAVYYCAAARYYTSGTYFPANYWGQGTQVTVSS"}, "B25": {"name": "02B03R3 His-tagged VHH (VHH)", "VHH": "EVQLVESGGGLVQSGGQLRLSCAASGSIASIRDMAWYRQAPGKQRELVAIFARGGTTHYADSVKGRFTISRDNAKNTVYLQMNSLEPEDTAAYYCNAEVATMFQPGFRDYWGRGTLVTVSS"}, "B26": {"name": "01A03R3L His-tagged VHH (VHH)", "VHH": "EVQLVESGGGLVQPGGQLRLSCAASGSIASVRDMAWYRQAPGKQRGLVAIFARGGTTHYADSVKGRFTISRDNAKNTVYLQMNSLEPEDTAAYYCNAEVATMFQPGFRDYWGRGTLVTVSS"}, "B27": {"name": "01C03R3L His-tagged VHH (VHH)", "VHH": "QVQLVESGGGLVQPGGRLRLSCAASGSIFSIRDMGWYRQAPGKQRELVAIFARGGSTHYADSVKGRFTISRDNAKNTVYLQMNSLEPEDTAAYYCNAEVATMIQPGFRDYWGQGTLVTVSS"}, "B28": {"name": "02H04R3 His-tagged VHH (VHH)", "VHH": "EVQLVESGGGLVQPGGRLRLSCAASGSIFSIRDMGWYRQAPGKQRELVAIFARGGSTHYADSVKGRFTISRDNAKNTVYLQMNSLEPEDTAAYYCNAEVATMIQPGFRDYWGQGTQVTVSS"}, "B29": {"name": "01C01R2LS His-tagged VHH (VHH)", "VHH": "QVQLVESGGGLQQAGGSLRLSCAASGRTVTVMTVGWFRQAPGKEREFVAAITMYGERTYYADSVKGRFTISRDNAKNTVDLQMNSLKPEDAAVYYCAARTYVSGIYDRFDDYNYWGQGTQVTVSS"}, "B30": {"name": "01G02R2LS His-tagged VHH (VHH)", "VHH": "QVQLVESGGGLVQAGDSLALSCAGSGDTFSNYAMGWFRQAPGKEREFVADISWYGANIGYADSVKGRFTISRDNAKNMVTLRMNSLKPEDTAVYYCAADRNHWPVKGDYWGQGTQVTVSS"}}}
{"molecular_target": "T1, recombinant human pIgR (hpIgR) (human, UniProt P01833 19-638, limits assumed)", "T1 construct": "probably the ECD", "T1 sequence (P01833 19-638 limits assumed)": "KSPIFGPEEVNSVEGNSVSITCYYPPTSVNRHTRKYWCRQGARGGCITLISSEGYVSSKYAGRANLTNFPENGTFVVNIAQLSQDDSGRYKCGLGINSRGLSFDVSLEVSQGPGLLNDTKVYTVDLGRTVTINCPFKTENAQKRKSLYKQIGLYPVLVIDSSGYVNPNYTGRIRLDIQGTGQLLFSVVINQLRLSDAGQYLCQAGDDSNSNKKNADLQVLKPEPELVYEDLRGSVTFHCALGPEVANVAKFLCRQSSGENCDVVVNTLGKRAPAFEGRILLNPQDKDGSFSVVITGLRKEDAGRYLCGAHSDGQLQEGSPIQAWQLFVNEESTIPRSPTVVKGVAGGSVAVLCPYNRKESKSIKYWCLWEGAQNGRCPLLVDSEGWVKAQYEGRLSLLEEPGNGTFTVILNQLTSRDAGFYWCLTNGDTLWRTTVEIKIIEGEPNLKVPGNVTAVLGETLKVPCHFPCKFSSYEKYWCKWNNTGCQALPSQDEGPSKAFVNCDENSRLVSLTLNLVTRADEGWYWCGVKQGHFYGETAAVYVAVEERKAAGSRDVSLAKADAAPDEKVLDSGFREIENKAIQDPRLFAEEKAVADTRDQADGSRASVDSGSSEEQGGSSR", "test": "ELISA, periplasmic VHH, BSA subtracted", "experimental": "Initial Library Screening: After each panning round showing enrichment, 94 individual clones were expressed and tested in an off-phage initial screen for specific binding to mpIgR or hpIgR (respectively depending on the antigen used). Screening of monoclones in an off-phage format was performed by transforming the phagemid pool into a non-amber-suppressor strain of E. coli and picking random colonies. The VHH proteins were recovered in the periplasmic fraction by performing osmotic shock. Periplasmic fractions containing His-tagged nanobodies were tested for binding to hpIgR or mpIgR. Bound nanobody was detected with a polyclonal anti-alpaca VHH domain antibody. Each clone was also tested for non-specific binding to BSA in parallel. The ELISA values obtained on BSA were subtracted from the ELISA values obtained on the respective pIgR antigen.\nRepeat Testing of Positive Hits: The hits identified in the initial screen of the phage pools were re-tested for binding to either hpIgR or mpIgR. Periplasmic fractions were prepared again by performing osmotic shock. Periplasmic fractions containing His-tagged nanobodies were tested for binding to mpIgR. In this assay, bound nanobody was detected with an anti-VHH antibody. Each clone was also tested for non-specific binding to BSA in parallel. The ELISA values obtained on BSA were subtracted from the ELISA values obtained on the respective pIgR antigen.", "units": {"ELISA (OD)": "OD"}}
{"binder": "B1", "ELISA (OD)": 1.68}
{"binder": "B2", "ELISA (OD)": 2.1}
{"binder": "B3", "ELISA (OD)": 2.1}
{"binder": "B4", "ELISA (OD)": 0.91}
{"binder": "B5", "ELISA (OD)": 1.86}
{"binder": "B6", "ELISA (OD)": 2.2}
{"binder": "B7", "ELISA (OD)": 2.19}
{"binder": "B8", "ELISA (OD)": 2.29}
{"binder": "B9", "ELISA (OD)": 0.93}
{"binder": "B10", "ELISA (OD)": 1.97}
{"binder": "B11", "ELISA (OD)": 2}
{"binder": "B12", "ELISA (OD)": 2.16}
{"binder": "B13", "ELISA (OD)": 1.8}
{"binder": "B14", "ELISA (OD)": 1.97}
{"binder": "B15", "ELISA (OD)": 2.01}
{"binder": "B16", "ELISA (OD)": 0.43}
{"binder": "B17", "ELISA (OD)": 1.98}
{"binder": "B18", "ELISA (OD)": 1.87}
{"binder": "B19", "ELISA (OD)": 2.41}
{"binder": "B20", "ELISA (OD)": 2.04}
{"binder": "B21", "ELISA (OD)": 1.54}
{"binder": "B22", "ELISA (OD)": 0.99}
{"binder": "B23", "ELISA (OD)": 2.01}
{"binder": "B24", "ELISA (OD)": 2.07}
{"binder": "B25", "ELISA (OD)": 0.44}
{"binder": "B26", "ELISA (OD)": 2.03}
{"binder": "B27", "ELISA (OD)": 1.77}
{"binder": "B28", "ELISA (OD)": 2.4}
{"binder": "B29", "ELISA (OD)": 0.82}
{"binder": "B30", "ELISA (OD)": 1.62}
